Reference: US20250269018A1, “COMBINED CANCER THERAPY WITH AN EPITHELIAL CELL ADHESION MOLECULE (EPCAM) INHIBITOR AND A HEPATOCYTE GROWTH FACTOR RECEPTOR (HGFR) INHIBITOR” (ACADEMIA SINICA, priority 2021, published 2025)
Entries after “also recorded” stand apart in the source; their conditions may differ.

Columns and labels:
HCT116 cells = test: Apoptosis assay, annexin V-FITC/PI double labeling, HCT116; format: cell-based, human; details: 10 μg/ml 24 h, FIG. 7C
ADAM17 and presenilin 2 = test: Western blotting of RIP proteins ADAM17 and presenilin 2 in HCT116 cells; format: cell-based, human; details: 10 μg/ml 16 h, then EpEX-His 50 nM 15 min, FIG. 7E
Description: FIGS. 7A to 7G. EpAb2-6 binds EpEX and induces apoptosis by F(ab′)2 and inhibits regulated intramembrane proteolysis (RIP) activation and HGFR signaling. (FIG. 7A) Binding affinity of IgG EpAb2-6 (mouse) and F(ab′)2 to EpEX-His (1 μg/ml) coated overnight was checked using ELISA (OD450). (FIG. 7B) HCT116 cells were treated with 100 μg/ml control IgG, Fc, or F(ab′)2 of EpAb2-6 for 24 h. The apoptotic and necrotic cells were quantified by fluorescein annexin V-FITC/PI double labeling. (FIG. 7C) HCT116 and HT29 cells were treated with 10 μg/ml control IgG, MT201, humanized EpAb2-6 (hEpAb2-6) or mouse hybridoma EbAb2-6 (mEpAb2-6) for 24 h. The apoptotic and necrotic cells were quantified by fluorescein annexin V-FITC/PI double labeling. (FIG. 7D) HCT116 cells were treated with 10 μg/ml control IgG, MT201, hEpAb2-6 or mEpAb2-6 for 16 h, followed by treatment with EpEX-His (50 nM) for 15 min. Levels of phosphorylated HGFR, AKT, and ERK, and (FIG. 7E) RIP proteins ADAM17 and presenilin 2 were examined by Western blotting. Anti-EpCAM antibody and crizotinib coordinately induces apoptosis in colon cancer cells. (FIG. 7F) HCT116 and HT29 cells were treated with 10 μg/ml NMIgG or EpAb2-6 and 4 μM HGFR inhibitor crizotinib for 24 h. The apoptotic and necrotic cells were quantified by fluorescein annexin V-FITC/PI double labeling. […] Cell invasion was assessed by a Transwell assay with matrigel after 24 h.
Whole cell extracts were prepared with RIPA buffer (50 mM Tris-HCl pH7.4, 1% NP-40, 0.5% Sodium deoxycholate, 0.1% SDS, 150 mM NaCl, 2 mM EDTA, 50 mM NaF). Protein concentrations of the cell lysates were determined by the Bradford assay. […]
Appropriate horseradish peroxidase-associated secondary antibodies (Millipore) were applied and the membranes were incubated at room temperature (RT) for 1 h. The protein bands were subsequently visualized with chemiluminescence reagents (Millipore) and detected on a BioSpectrum 600 Imaging system (UVP). The protein level was quantified from band intensity using Gel-Pro analyzer 3.1 (Media Cybernetics).

HT29 cells = test: Apoptosis assay, annexin V-FITC/PI double labeling, HT29; format: cell-based, human; details: 10 μg/ml 24 h, FIG. 7C
Description: FIGS. 7A to 7G. EpAb2-6 binds EpEX and induces apoptosis by F(ab′)2 and inhibits regulated intramembrane proteolysis (RIP) activation and HGFR signaling. (FIG. 7A) Binding affinity of IgG EpAb2-6 (mouse) and F(ab′)2 to EpEX-His (1 μg/ml) coated overnight was checked using ELISA (OD450). (FIG. 7B) HCT116 cells were treated with 100 μg/ml control IgG, Fc, or F(ab′)2 of EpAb2-6 for 24 h. The apoptotic and necrotic cells were quantified by fluorescein annexin V-FITC/PI double labeling. (FIG. 7C) HCT116 and HT29 cells were treated with 10 μg/ml control IgG, MT201, humanized EpAb2-6 (hEpAb2-6) or mouse hybridoma EbAb2-6 (mEpAb2-6) for 24 h. The apoptotic and necrotic cells were quantified by fluorescein annexin V-FITC/PI double labeling. (FIG. 7D) HCT116 cells were treated with 10 μg/ml control IgG, MT201, hEpAb2-6 or mEpAb2-6 for 16 h, followed by treatment with EpEX-His (50 nM) for 15 min. Levels of phosphorylated HGFR, AKT, and ERK, and (FIG. 7E) RIP proteins ADAM17 and presenilin 2 were examined by Western blotting. Anti-EpCAM antibody and crizotinib coordinately induces apoptosis in colon cancer cells. (FIG. 7F) HCT116 and HT29 cells were treated with 10 μg/ml NMIgG or EpAb2-6 and 4 μM HGFR inhibitor crizotinib for 24 h. The apoptotic and necrotic cells were quantified by fluorescein annexin V-FITC/PI double labeling. (FIG. 7G) HCT116 and HT29 cells were treated with 10 μg/ml NMIgG or EpAb2-6 and 10 μM HGFR inhibitor crizotinib. Cell invasion was assessed by a Transwell assay with matrigel after 24 h.
Cells were seeded and treated with 10 μg/ml mAb or inhibitor for 6 h; an unrelated mouse myeloma immunoglobulin used at appropriate dilution served as the IgG2a (Invitrogen #02-6200) isotype control. Apoptotic cells were detected using Annexin V-FITC and PI, and were analyzed using a flow cytometer (BD Immmunocytometry Systems). Early apoptosis was measured with the Annexin V-FITC Apoptosis Detection kit II (BD Pharmingen). Late apoptotic nuclei were detected with propidium iodide (PI) staining.

cancer cells = details: comparison in the description; previous work; cited from earlier work
EpCAM [1] = target: T1, EpCAM (Homo sapiens, UniProt P16422); details: cited from earlier work
T1 sequence (P16422 24-314): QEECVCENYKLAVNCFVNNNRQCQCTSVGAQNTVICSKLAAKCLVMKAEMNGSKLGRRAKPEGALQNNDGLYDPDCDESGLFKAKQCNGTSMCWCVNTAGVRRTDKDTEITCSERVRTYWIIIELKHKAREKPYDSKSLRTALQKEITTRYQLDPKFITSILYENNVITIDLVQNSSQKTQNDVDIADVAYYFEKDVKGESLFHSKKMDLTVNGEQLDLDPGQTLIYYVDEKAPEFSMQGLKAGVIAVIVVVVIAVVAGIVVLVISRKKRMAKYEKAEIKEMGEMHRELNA

EpCAM [2] = target: T1, EpCAM; test: Antibody binding to EpCAM wild-type and mutants expressed in HEK293T cells (immunofluorescence, flow cytometry, cellular ELISA); details: conclusion from deletion and point mutants
Description: FIGS. 8A to 8G. EpAb2-6 binds to both EGF-like domain I and II of EpCAM. HEK293T cells were transfected with full length or EGF like-domain deletion mutant EpCAM-V5. Antibody binding was assessed by (FIG. 8A) Western blotting, (FIG. 8B) flow cytometry, and (FIG. 8C) immunofluorescence. (FIG. 8D) EpCAM mutants were constructed with amino acid substitutions in the EGF-I (Y32A) and EGF-II (L94A, Y95A, or D96A) domains. EpCAM wild-type and mutant proteins were expressed in HEK293T cells. Binding of MT201, EpAb2-6 and EpAb23-1 to EpCAM wild-type and mutants were evaluated by (FIG. 8E) immunofluorescence, (FIG. 8F) flow cytometry, and (FIG. 8G) cellular ELISA.
A previous study identified the binding epitope of EpAb2-6 antibody as the LYD motif in EpCAM, which corresponds to amino acid residues 94-96; in particular, residue 95 (Y95) plays a major role in EpAb2-6 binding (Liao et al., 2015). […] Therefore, we wanted to determine whether the antibody binds to EpCAM at both EGF-like domains of EpEX (FIG. 8A, FIG. 8B, FIG. 8C). To confirm that EpAb2-6 recognizes the LYD motif in EpCAM, we constructed cDNA sequences encoding the first (aa 27-59; EGF-I domain) and second (aa 66-135; EGF-II/TY domain) EGF-like repeats of EpCAM. PCR-based site-directed mutagenesis was then used to introduce mutations into each domain (FIG. 8D). The reactivity of EpAb2-6 antibody toward these EpCAM mutants was evaluated by immunofluorescence (FIG. 8E), flow cytometry (FIG. 8F), and cellular ELISA (FIG. 8G).

[3] = tested on: GSK3β, active β-catenin and Snail; test: Western blotting of GSK3β, active β-catenin, Snail and EMT proteins in HCT116 cells; format: cell-based, human
HCT116 or HT29 = test: Metastatic and orthotopic animal models of colon cancer, overall statements
Description: Colon cancer HCT116 or HT29 (5×10^6 cells/mouse) in PBS were injected into 4-6-week-old female NOD/SCID mice through the tail vein. Mice were then randomly assigned to different treatment groups by body weight. After 3 days, antibodies were administered through tail vein injection twice a week for four consecutive weeks. Crizotinib was administered daily by oral gavage for 5 days per week (treatment for four weeks). For the therapeutic study, tumor-bearing mice were treated with isotype control IgG1 (15 mg/kg), crizotinib (20 mg/kg), EpAb2-6 (15 mg/kg), or crizotinib (20 mg/kg) combined with EpAb2-6 (15 mg/kg). Mouse survival rate were measured.
Orthotopic tumor models were created as previously reported (Chen et al., 2020). Briefly, NSCID mice were used for orthotopic implantation of HCT116 cells previously infected with Lenti-luc virus (lentivirus containing luciferase gene). The mice were anesthetized by i.p. injection ofAvertin, 2,2,2-Tribromo-ethanol (Sigma-Aldrich) at a dose of 250 mg/kg. Tumor development was monitored by bioluminescence imaging. For the therapeutic study, tumor-bearing mice were treated with isotype control IgG1 (15 mg/kg), crizotinib (20 mg/kg), EpAb2-6 (15 mg/kg), or crizotinib (20 mg/kg) combined with EpAb2-6 (15 mg/kg). Tumor progression was monitored by quantification of bioluminescence. Mouse survival was also monitored.

With “MT201: human anti-EpCAM antibody, adecatumumab (MT201)” the apoptosis (HCT116 cells) was “did not show such effects”, the “levels of phosphorylated ADAM17 and presenilin 2” value (ADAM17 and presenilin 2) was “no such effects” and the apoptosis (HT29 cells) was “did not show such effects”. The “inducing apoptosis of cancer cells” value (cancer cells) was “failing to” and the EpCAM domains bound (EpCAM [1]; other anti-EpCAM antibodies, comparison in the description) was “target only the well-described EGF I domain of EpCAM; also recorded: binding to domain I only”.

B1: EpAb2-6: anti-EpCAM neutralizing monoclonal antibody targeting EpEX; VH SEQ ID NO: 15, VL SEQ ID NO: 16 (antibody, listed as Homo sapiens, V domains shown)
VH: VKLQESGPELKKPGETVKISCKASGYTFTDYSMHWVKQAPGKGLKWMGWINTETGEPTYADDFKGRFAFSLETSASTAYLQINNLKNEDTATYFCARTAVYWGQGTTVTVSS
VL: DIQMTQSPSSLSASLGERVSLTCRASQEISVSLSWLQQEPDGTIKRLIYATSTLDSGVPKRFSGSRSGSDYSLTISSLESEDFVDYYCLQYASYPWTFGGGTKLEIKRADAAPTVS
In the case of B1, the apoptosis (HCT116 cells) is reported as “inducing apoptosis”, the “levels of phosphorylated ADAM17 and presenilin 2” value (ADAM17 and presenilin 2) is reported as “decreased” and the “EpEX domains and residues bound” value (EpCAM [2]) is reported as “binds to the EGF-I and EGF-II domains of EpEX, respectively targeting amino acid residues Y32 and Y95”. The apoptosis (HT29 cells) was “inducing apoptosis”, the “Active β-catenin and Snail steady-state protein levels” value ([3]; 10 μM MG132 and EpAb2-6 for 6 h, FIG. 6I) was “reduced” and the “activating phosphorylation of GSK3β at Y216 (active GSK3β)” value ([3]; 24 h, FIG. 6H) was “increased activating phosphorylation of the protein at Y216”. For the same molecule, the “suppressive phosphorylation of GSK3β at S9 (inactive GSK3β)” value ([3]; 24 h, FIG. 6H) was “decreased suppressive phosphorylation of GSK3β at S9”, the “levels of E-cadherin” value ([3]; 24 h, vs control IgG, FIG. 6G) was “increased the levels of E-cadherin” and the “levels of Snail and the active β-catenin” value ([3]; 24 h, vs control IgG, FIG. 6G) was “decreasing Snail and the active β-catenin”. For the same molecule, the survival (HCT116 or HT29) was “higher median survival than the control IgG- or crizotinib-treated groups”, the tumor progression (HCT116 or HT29) was “much slower tumor progression” and the “inducing apoptosis of cancer cells” value (cancer cells) was “induces cancer cell apoptosis”. The “binding epitope in EpCAM” value (EpCAM [1]; previous study (Liao et al., 2015)) was “LYD motif”.
